Patent US20220363770A1 (Amgen, published 2022)
Positions count from the first letter of the chain named.

B1: anti-CGRP receptor variant antibody 02, bivalent monoclonal antibody (antibody, human IgG1, lambda, N297G, V domains shown)
VH: QVQLVESGGGVVQPGRSLRLSCAASGFTFSSFGMHWVRQAPGKGLEWVAVISFDGSIKYSVDSVKGRFTISRDNSKNTLFLQMNSLRAEDTAVYYCARDRLNYYESSGYYHYKYYGMAVWGQGTTVTVSS
VL: QSVLTQPPSVSAAPGQKVTISCSGSRSNIGIKAVSWYQQLPGTAPKLLIYDNNKRPSGIPDRFSGSKSGTSATLGITGLQTGDEADYYCGTWDSRLSAVVFGGGTKLTVLG
B2: anti-CGRP receptor variant antibody 05, bivalent monoclonal antibody (antibody, human IgG1, lambda, N297G, V domains shown)
VH: B1 VH
VL: QSVLTQPPSVSAAPGQKVTISCSGSFSNIGRSTVSWYQQLPGTAPKLLIYDNRWRAGGIPDRFSGSKSGTSATLGITGLQTGDEADYYCGTWDYQWKAVVFGGGTKLTVLG
B3: 4E4.2 parental antibody, bivalent monoclonal antibody (antibody, human IgG1, lambda, N297G, V domains shown)
VH: B1 VH
VL: B1 VL with R26S, I31N, K32N, A33Y
B4: 4E4.2 parental Fab, yeast-displayed (Fab, V domains shown)
VH: B1 VH
VL: B1 VL with R26S, I31N, K32N, A33Y
notes: also called parental 4E4.2 Fab
B5: anti-CGRP receptor variant 06, yeast-displayed Fab (Fab, V domains shown)
VH: B1 VH
VL: B1 VL with R26Y, I31R, A33S
notes: also called Variant Ab ID 06
B6: anti-CGRP receptor variant antibody 08, bivalent monoclonal antibody (antibody, human IgG1, lambda, N297G, V domains shown)
VH: B1 VH
VL: B1 VL with R26Y, I31W, K32W, A33P
B7: anti-CGRP receptor variant antibody 04, bivalent monoclonal antibody (antibody, human IgG1, lambda, N297G, V domains shown)
VH: B1 VH with E105R, S107F, H111G, K113H
VL: B1 VL with R26S, I31N, K32N, A33Y
B8: anti-CGRP receptor variant 08, yeast-displayed Fab (Fab, V domains shown)
VH: B1 VH
VL: B1 VL with R26Y, I31W, K32W, A33P
notes: also called Variant Ab ID 08
B9: anti-CGRP receptor variant 04, yeast-displayed Fab (Fab, V domains shown)
VH: B1 VH with E105R, S107F, H111G, K113H
VL: B1 VL with R26S, I31N, K32N, A33Y
notes: also called Variant Ab ID 04
B10: anti-CGRP receptor variant 12, yeast-displayed Fab (Fab, V domains shown)
VH: B1 VH
VL: B2 VL with F26R, S32Y, T33S, W54Y, G57Q, Y94W, Q95A, W96T, K97T, A98S
notes: also called Variant Ab ID 12
B11: anti-CGRP receptor variant 05, yeast-displayed Fab (Fab, V domains shown)
VH: B1 VH
VL: B2 VL
notes: also called Variant Ab ID 05
B12: anti-CGRP receptor variant 02, yeast-displayed Fab (Fab, V domains shown)
VH: B1 VH
VL: B1 VL
notes: also called Variant Ab ID 02
B13: anti-CGRP receptor variant 07, yeast-displayed Fab (Fab, V domains shown)
VH: B1 VH with T28Y, S30M, S31T, F32Y
VL: B1 VL with R26S, I31N, K32N, A33Y
notes: also called Variant Ab ID 07
B14: anti-CGRP receptor variant 01, yeast-displayed Fab (Fab, V domains shown)
VH: B1 VH
VL: B1 VL with R26Y, I31R, K32Y, A33S
notes: also called Variant Ab ID 01

Assays:
[1] = molecular target: T1, human CGRP receptor (human CRLR / human RAMP1 heterodimer) (human, UniProt Q16602 23-461; O60894 27-148); assay: cell-based or functional assay
[2] = molecular target: T1, human CGRP receptor (human CRLR / human …); assay: yeast-displayed Fab, FACS, detergent-solubilized lysate of human CGRP receptor-expressing cells vs blank cells
[3] = molecular target: T2, cynomolgus monkey CGRP receptor (cynomolgus monkey, UniProt A0A2K5VQ71 34-472); assay: yeast-displayed Fab, FACS, detergent-solubilized lysate of cynomolgus CGRP receptor/HEK cells vs blank cells
T2 construct: whole, on cells; Presented as detergent-solubilized lysate of HEK cells expressing the cynomolgus receptor; also called Cyno CGRP Receptor; Cynomolgus Monkey CGRP Receptor/HEK detergent-solubilized cell lysate

[4] = molecular target: T3, human CGRP receptor extracellular domain (ECD) (human, UniProt Q16602 23-138; O60894 27-117); assay: yeast-displayed Fab, FACS, 10 nM human CGRP receptor ECD
T3 construct: also called CGRP receptor ECD; human CGRP receptor ECD

[5] = molecular target: T3, human CGRP receptor extracellular …; assay: yeast-displayed Fab, FACS, 1 nM human CGRP receptor ECD
[6] = molecular target: T4, human PAC1 receptor extracellular domain (ECD) (human, UniProt P41586 24-153); assay: yeast-displayed Fab, FACS, 10 nM PAC1 receptor ECD
T4 construct: also called PAC1 receptor ECD; PAC1 ECD
T4 sequence: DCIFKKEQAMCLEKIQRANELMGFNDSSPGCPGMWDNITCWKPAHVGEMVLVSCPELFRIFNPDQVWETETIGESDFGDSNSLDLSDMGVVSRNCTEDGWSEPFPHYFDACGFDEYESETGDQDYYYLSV

T1 sequence (Q16602 23-461 limits assumed, chain 1 of 2): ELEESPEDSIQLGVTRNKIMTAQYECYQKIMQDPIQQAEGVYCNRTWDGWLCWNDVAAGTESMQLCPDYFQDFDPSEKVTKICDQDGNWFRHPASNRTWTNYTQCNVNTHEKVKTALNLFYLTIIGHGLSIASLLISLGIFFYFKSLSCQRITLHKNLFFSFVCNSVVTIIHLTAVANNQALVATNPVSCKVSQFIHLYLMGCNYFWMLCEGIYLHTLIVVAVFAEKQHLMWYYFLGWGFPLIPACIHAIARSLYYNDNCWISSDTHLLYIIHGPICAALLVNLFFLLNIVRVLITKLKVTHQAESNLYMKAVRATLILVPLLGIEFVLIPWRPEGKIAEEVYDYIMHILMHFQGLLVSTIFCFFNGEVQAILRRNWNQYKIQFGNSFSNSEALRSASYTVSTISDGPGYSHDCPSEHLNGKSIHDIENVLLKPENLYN
T1 sequence (O60894 27-148 limits assumed, chain 2 of 2): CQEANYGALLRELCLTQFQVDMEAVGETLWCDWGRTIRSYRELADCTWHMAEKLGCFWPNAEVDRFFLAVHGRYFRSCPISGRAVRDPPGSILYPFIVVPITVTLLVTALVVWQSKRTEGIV
T2 sequence (A0A2K5VQ71 entry or part of it): as the sequence (Q16602 23-461 limits assumed, chain 1 of 2) above, with D55N, L431V counted along it
T3 sequence (Q16602 23-138 limits assumed, chain 1 of 2): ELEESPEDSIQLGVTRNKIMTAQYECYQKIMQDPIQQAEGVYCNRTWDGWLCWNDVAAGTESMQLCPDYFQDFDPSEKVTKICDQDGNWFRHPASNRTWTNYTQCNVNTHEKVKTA
T3 sequence (O60894 27-117 limits assumed, chain 2 of 2): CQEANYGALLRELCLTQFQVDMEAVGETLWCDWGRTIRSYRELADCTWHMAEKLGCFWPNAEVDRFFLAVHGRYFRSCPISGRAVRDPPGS

Binder | Average IC50 (nM), cell-based cAMP assay, SK-N-MC cells, 3 nM human α-CGRP [1] | Fold-improvement over 4E4 Ab (IC50, cAMP assay) [1] | Run 1 IC50 (nM), cell-based cAMP assay, SK-N-MC cells, 3 nM human α-CGRP [1] | Run 2 IC50 (nM), cell-based cAMP assay, SK-N-MC cells, 3 nM human α-CGRP [1] | Human CGRP Receptor/Blank Cells Specific Binding [2] | Mutant vs. 4E4.2 Parent Specific Binding Ratio [2] | Cyno CGRP Receptor/Blank Cells Specific Binding [3] | Mutant vs. 4E4.2 Parent Specific Binding Ratio [3] | Mutant vs. 4E4.2 Parent B/D Ratio [4] | Normalized Binding Signal/Display Signal (B/D) [4] | Mutant vs. 4E4.2 Parent B/D Ratio [5] | Normalized Binding Signal/Display Signal (B/D) [5] | Mutant vs. 4E4.2 Parent B/D Ratio [6] | Normalized Binding Signal/Display Signal (B/D) [6]
B1 | 0.12 nM | 4.6 fold | 0.1 nM | 0.13 nM |  |  |  |  |  |  |  |  |  | 
B2 | 0.2 nM | 2.7 fold | 0.15 nM | 0.25 nM |  |  |  |  |  |  |  |  |  | 
B3 | 0.45 nM | 1.2 fold | 0.34 nM | 0.56 nM |  |  |  |  |  |  |  |  |  | 
B4 |  |  |  |  | 8 ratio | 1 fold | 1.9 ratio | 1 fold |  |  |  |  |  | 
B5 |  |  |  |  | 17.5 ratio | 2.2 fold | 4.8 ratio | 2.5 fold | 7.4 fold | 1.13 ratio | 2.2 fold | 0.27 ratio | 1 fold | 0.1 ratio
B6 | 0.3 nM | 1.8 fold | 0.28 nM | 0.31 nM |  |  |  |  |  |  |  |  |  | 
B7 | 0.17 nM | 3.1 fold | 0.14 nM | 0.21 nM |  |  |  |  |  |  |  |  |  | 
B8 |  |  |  |  | 18 ratio | 2.3 fold | 4.9 ratio | 2.5 fold | 3.1 fold | 0.48 ratio | 1.4 fold | 0.17 ratio | 1 fold | 0.1 ratio
B9 |  |  |  |  | 9.5 ratio | 1.2 fold | 3.1 ratio | 1.6 fold | 3.4 fold | 0.53 ratio | 1.6 fold | 0.2 ratio | 1.1 fold | 0.12 ratio
B10 |  |  |  |  |  |  | 10.3 ratio | 5.4 fold | 9.7 fold | 1.5 ratio | 2.8 fold | 0.35 ratio |  | 
B11 |  |  |  |  | 24.4 ratio | 3.1 fold | 5.2 ratio | 2.7 fold | 24.6 fold | 3.78 ratio | 6.7 fold | 0.82 ratio |  | 
B12 |  |  |  |  | 14.2 ratio | 1.8 fold | 5.3 ratio | 2.8 fold | 3.8 fold | 0.58 ratio | 1.4 fold | 0.17 ratio | 0.9 fold | 0.1 ratio
B13 |  |  |  |  | 11.7 ratio | 1.5 fold | 3.1 ratio | 1.6 fold | 5.3 fold | 0.81 ratio | 1.8 fold | 0.22 ratio | 1.2 fold | 0.13 ratio
B14 |  |  |  |  | 25.8 ratio | 3.2 fold | 4.6 ratio | 2.4 fold | 5.8 fold | 0.89 ratio | 1.7 fold | 0.21 ratio | 0.8 fold | 0.09 ratio
